Source: patent US20200297818A1 (ZEALAND PHARMA A S, published 2020)
Changes are numbered by the printed parent chain. *1 amine or outer side, *2 acyl side, *3 side chain or, on linkers, in order; H or OH if unused. Side-chain parts run from the residue outwards. [ ]: non-standard residue; d: D form. The star is where a group is joined. C20 diacid = O=C(O)CCCCCCCCCCCCCCCCCCC(=O)*; C18 diacid = O=C(O)CCCCCCCCCCCCCCCCC(=O)*; γGlu = O=C(O)[C@H](CCC(=O)[*:2])N[*:1]; εLys = N[C@@H](CCCCN[*:1])C(=O)[*:2]; Stearoyl = CCCCCCCCCCCCCCCCCC(=O)*; AEEA = NCCOCCOCC(=O)O; Aib = CC(C)(N)C(=O)O

T1: human GLP-2 receptor (hGLP2-R) (human, UniProt O95838 1-553)
T1 sequence (looked up): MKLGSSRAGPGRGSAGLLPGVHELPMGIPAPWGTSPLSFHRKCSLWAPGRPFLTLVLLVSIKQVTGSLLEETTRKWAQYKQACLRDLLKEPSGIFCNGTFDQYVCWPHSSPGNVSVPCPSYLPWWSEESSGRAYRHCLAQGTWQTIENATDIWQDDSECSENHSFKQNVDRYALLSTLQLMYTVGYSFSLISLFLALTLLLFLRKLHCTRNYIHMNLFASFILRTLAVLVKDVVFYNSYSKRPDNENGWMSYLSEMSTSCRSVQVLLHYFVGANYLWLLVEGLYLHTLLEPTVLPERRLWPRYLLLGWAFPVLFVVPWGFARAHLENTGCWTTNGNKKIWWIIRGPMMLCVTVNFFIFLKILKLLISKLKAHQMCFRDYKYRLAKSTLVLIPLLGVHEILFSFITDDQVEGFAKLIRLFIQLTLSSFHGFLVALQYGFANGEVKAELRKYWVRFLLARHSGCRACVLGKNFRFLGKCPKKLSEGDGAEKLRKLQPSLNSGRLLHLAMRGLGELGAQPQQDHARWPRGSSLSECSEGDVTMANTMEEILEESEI

B1: Compound 35 (peptide)
peptide: H-H[Aib]EGSFTSELATILDK([AEEA-AEEA-AEEA-εLys-C20 diacid])QAARDFIAWLIQQKITD-OH
SMILES: CC[C@H](C)[C@H](NC(=O)[C@H](Cc1ccccc1)NC(=O)[C@H](CC(=O)O)NC(=O)[C@H](CCCNC(=N)N)NC(=O)[C@H](C)NC(=O)[C@H](C)NC(=O)[C@H](CCC(N)=O)NC(=O)[C@H](CCCCNC(=O)COCCOCCNC(=O)COCCOCCNC(=O)COCCOCCNC(=O)[C@@H](N)CCCCNC(=O)CCCCCCCCCCCCCCCCCCC(=O)O)NC(=O)[C@H](CC(=O)O)NC(=O)[C@H](CC(C)C)NC(=O)[C@@H](NC(=O)[C@@H](NC(=O)[C@H](C)NC(=O)[C@H](CC(C)C)NC(=O)[C@H](CCC(=O)O)NC(=O)[C@H](CO)NC(=O)[C@@H](NC(=O)[C@H](Cc1ccccc1)NC(=O)[C@H](CO)NC(=O)CNC(=O)[C@H](CCC(=O)O)NC(=O)C(C)(C)NC(=O)[C@@H](N)Cc1c[nH]cn1)[C@@H](C)O)[C@@H](C)O)[C@@H](C)CC)C(=O)N[C@@H](C)C(=O)N[C@@H](Cc1c[nH]c2ccccc12)C(=O)N[C@@H](CC(C)C)C(=O)N[C@H](C(=O)N[C@@H](CCC(N)=O)C(=O)N[C@@H](CCC(N)=O)C(=O)N[C@@H](CCCCN)C(=O)N[C@H](C(=O)N[C@H](C(=O)N[C@@H](CC(=O)O)C(=O)O)[C@@H](C)O)[C@@H](C)CC)[C@@H](C)CC
B2: Compound 36 (peptide)
peptide: H-H[Aib]EGSFTSELATILDK(Stearoyl)QAARDFIAWLIQYKITD-OH
SMILES: CCCCCCCCCCCCCCCCCC(=O)NCCCC[C@H](NC(=O)[C@H](CC(=O)O)NC(=O)[C@H](CC(C)C)NC(=O)[C@@H](NC(=O)[C@@H](NC(=O)[C@H](C)NC(=O)[C@H](CC(C)C)NC(=O)[C@H](CCC(=O)O)NC(=O)[C@H](CO)NC(=O)[C@@H](NC(=O)[C@H](Cc1ccccc1)NC(=O)[C@H](CO)NC(=O)CNC(=O)[C@H](CCC(=O)O)NC(=O)C(C)(C)NC(=O)[C@@H](N)Cc1c[nH]cn1)[C@@H](C)O)[C@@H](C)O)[C@@H](C)CC)C(=O)N[C@@H](CCC(N)=O)C(=O)N[C@@H](C)C(=O)N[C@@H](C)C(=O)N[C@@H](CCCNC(=N)N)C(=O)N[C@@H](CC(=O)O)C(=O)N[C@@H](Cc1ccccc1)C(=O)N[C@H](C(=O)N[C@@H](C)C(=O)N[C@@H](Cc1c[nH]c2ccccc12)C(=O)N[C@@H](CC(C)C)C(=O)N[C@H](C(=O)N[C@@H](CCC(N)=O)C(=O)N[C@@H](Cc1ccc(O)cc1)C(=O)N[C@@H](CCCCN)C(=O)N[C@H](C(=O)N[C@H](C(=O)N[C@@H](CC(=O)O)C(=O)O)[C@@H](C)O)[C@@H](C)CC)[C@@H](C)CC)[C@@H](C)CC
B3: Compound 39 (peptide)
peptide: HXEGTFTSELATILDEQAARDFIAWLIAHKITDXXXXXXX
HELM: PEPTIDE1{H.[Aib].E.G.T.F.T.S.E.L.A.T.I.L.D.E.Q.A.A.R.D.F.I.A.W.L.I.A.H.K.I.T.D.[dK].[dK].[dK].[dK].[dK].[dK].[am]}|PEPTIDE2{[O=C(O)CCCCCCCCCCCCCCCCC(=O)[*:2]].[gGlu]}$PEPTIDE1,PEPTIDE2,39:R3-2:R2$$$V2.0
SMILES: CC[C@H](C)[C@H](NC(=O)[C@H](CC(C)C)NC(=O)[C@H](Cc1c[nH]c2ccccc12)NC(=O)[C@H](C)NC(=O)[C@@H](NC(=O)[C@H](Cc1ccccc1)NC(=O)[C@H](CC(=O)O)NC(=O)[C@H](CCCNC(=N)N)NC(=O)[C@H](C)NC(=O)[C@H](C)NC(=O)[C@H](CCC(N)=O)NC(=O)[C@H](CCC(=O)O)NC(=O)[C@H](CC(=O)O)NC(=O)[C@H](CC(C)C)NC(=O)[C@@H](NC(=O)[C@@H](NC(=O)[C@H](C)NC(=O)[C@H](CC(C)C)NC(=O)[C@H](CCC(=O)O)NC(=O)[C@H](CO)NC(=O)[C@@H](NC(=O)[C@H](Cc1ccccc1)NC(=O)[C@@H](NC(=O)CNC(=O)[C@H](CCC(=O)O)NC(=O)C(C)(C)NC(=O)[C@@H](N)Cc1c[nH]cn1)[C@@H](C)O)[C@@H](C)O)[C@@H](C)O)[C@@H](C)CC)[C@@H](C)CC)C(=O)N[C@@H](C)C(=O)N[C@@H](Cc1c[nH]cn1)C(=O)N[C@@H](CCCCN)C(=O)N[C@H](C(=O)N[C@H](C(=O)N[C@@H](CC(=O)O)C(=O)N[C@H](CCCCN)C(=O)N[C@H](CCCCN)C(=O)N[C@H](CCCCN)C(=O)N[C@H](CCCCN)C(=O)N[C@H](CCCCN)C(=O)N[C@H](CCCCNC(=O)CC[C@H](NC(=O)CCCCCCCCCCCCCCCCC(=O)O)C(=O)O)C(N)=O)[C@@H](C)O)[C@@H](C)CC
B4: Compound 40 (peptide)
peptide: B3 peptide with T5S, A28E
HELM: PEPTIDE1{H.[Aib].E.G.S.F.T.S.E.L.A.T.I.L.D.E.Q.A.A.R.D.F.I.A.W.L.I.E.H.K.I.T.D.[dK].[dK].[dK].[dK].[dK].[dK].[am]}|PEPTIDE2{[O=C(O)CCCCCCCCCCCCCCCCC(=O)[*:2]].[gGlu]}$PEPTIDE1,PEPTIDE2,39:R3-2:R2$$$V2.0
SMILES: CC[C@H](C)[C@H](NC(=O)[C@H](Cc1ccccc1)NC(=O)[C@H](CC(=O)O)NC(=O)[C@H](CCCNC(=N)N)NC(=O)[C@H](C)NC(=O)[C@H](C)NC(=O)[C@H](CCC(N)=O)NC(=O)[C@H](CCC(=O)O)NC(=O)[C@H](CC(=O)O)NC(=O)[C@H](CC(C)C)NC(=O)[C@@H](NC(=O)[C@@H](NC(=O)[C@H](C)NC(=O)[C@H](CC(C)C)NC(=O)[C@H](CCC(=O)O)NC(=O)[C@H](CO)NC(=O)[C@@H](NC(=O)[C@H](Cc1ccccc1)NC(=O)[C@H](CO)NC(=O)CNC(=O)[C@H](CCC(=O)O)NC(=O)C(C)(C)NC(=O)[C@@H](N)Cc1c[nH]cn1)[C@@H](C)O)[C@@H](C)O)[C@@H](C)CC)C(=O)N[C@@H](C)C(=O)N[C@@H](Cc1c[nH]c2ccccc12)C(=O)N[C@@H](CC(C)C)C(=O)N[C@H](C(=O)N[C@@H](CCC(=O)O)C(=O)N[C@@H](Cc1c[nH]cn1)C(=O)N[C@@H](CCCCN)C(=O)N[C@H](C(=O)N[C@H](C(=O)N[C@@H](CC(=O)O)C(=O)N[C@H](CCCCN)C(=O)N[C@H](CCCCN)C(=O)N[C@H](CCCCN)C(=O)N[C@H](CCCCN)C(=O)N[C@H](CCCCN)C(=O)N[C@H](CCCCNC(=O)CC[C@H](NC(=O)CCCCCCCCCCCCCCCCC(=O)O)C(=O)O)C(N)=O)[C@@H](C)O)[C@@H](C)CC)[C@@H](C)CC

Biological target: T1, human GLP-2 receptor (hGLP2-R)
Assay: cell-based or functional assay

Going from B1 to B2, the “EC50 GLP-2 (nM); cAMP response” value rises from 0.3 nM to 3.2 nM (11-fold).

H-H[Aib]EGTFSSELATILDEQAARDFIAWLIAHKITD[dK][dK][dK][dK][dK][dK]([γGlu-C18 diacid])-NH2 [Compound 38] and B3 are within 1.5-fold of each other in “EC50 GLP-2 (nM); cAMP response” value: 0.89 nM for the first, 0.98 nM for the second.

B4 and H-H[Aib]EGTFTSELATILDK([γGlu-C20 diacid])QAARDFIAWLIQHKITD-OH [Compound 41] are within 1.5-fold of each other in “EC50 GLP-2 (nM); cAMP response” value: 0.5 nM for the first, 0.62 nM for the second.

Biological target: human glucagon-like peptide 1 receptor (GLP-1 R) (human, UniProt P43220 24-463)
Assay: cell-based or functional assay

Going from B1 to B2, the “EC50 GLP-1 (nM); cAMP response” value rises from 0.099 nM to 0.32 nM (3.2-fold).

Going from H-H[Aib]EGTFSSELATILDEQAARDFIAWLIAHKITD[dK][dK][dK][dK][dK][dK]([γGlu-C18 diacid])-NH2 [Compound 38] to B3, the “EC50 GLP-1 (nM); cAMP response” value falls from 0.25 nM to 0.044 nM (5.7-fold).

Compared with B4, H-H[Aib]EGTFTSELATILDK([γGlu-C20 diacid])QAARDFIAWLIQHKITD-OH [Compound 41] is 1.5-fold lower in “EC50 GLP-1 (nM); cAMP response” value: 0.074 nM for the first, 0.048 nM for the second.
